Substitutions are numbered along the chain they refer to.
B1: anti-CCR5 antibody with heavy chain variable domain SEQ ID NO: 6 and light chain variable domain SEQ ID NO: 9, mutated IgG1 (IgG1v2) constant region (antibody, name in EU numbering, V domains shown)
VH: QVQLQESGPGLVKPSQSLSITCTVSGFPLGAFGVHWVRQSPGKGPEWLGVIWKGGNTDYNAAFKSRLRITKDNSKSQVFFRMNSLQTDDTATYYCAKVNLADAMDYWGQGTTVTVSS
VL: DIQMTQSPASLSASVGETVTITCRASGNAHGYLAWYQQKPGKAPKLLIYNTKTLAEGVPSRFSGSGSGTQFSLKINSAQPEDFGNYYCQHHYDLPRTFGGGTKVEIKR
B2: anti-CCR5 antibody with heavy chain variable domain SEQ ID NO: 6 and light chain variable domain SEQ ID NO: 10, mutated IgG1 (IgG1v2) constant region (antibody, name in EU numbering, V domains shown)
VH: B1 VH
VL: B1 VL with I48V
B3: anti-CCR5 antibody with heavy chain variable domain SEQ ID NO: 8 and light chain variable domain SEQ ID NO: 9, mutated IgG1 (IgG1v2) constant region (antibody, name in EU numbering, V domains shown)
VH: B1 VH with P45L, T92I
VL: B1 VL
B4: anti-CCR5 antibody with heavy chain variable domain SEQ ID NO: 8 and light chain variable domain SEQ ID NO: 10, mutated IgG1 (IgG1v2) constant region (antibody, name in EU numbering, V domains shown)
VH: B1 VH with P45L, T92I
VL: B1 VL with I48V
B5: anti-CCR5 antibody with heavy chain variable domain SEQ ID NO: 7 and light chain variable domain SEQ ID NO: 9, mutated IgG1 (IgG1v2) constant region (antibody, name in EU numbering, V domains shown)
VH: B1 VH with P45L
VL: B1 VL
B6: anti-CCR5 antibody with heavy chain variable domain SEQ ID NO: 7 and light chain variable domain SEQ ID NO: 10, mutated IgG1 (IgG1v2) constant region (antibody, name in EU numbering, V domains shown)
VH: B1 VH with P45L
VL: B1 VL with I48V

These binders were tested against human CC chemokine receptor CCR5 (human) (UniProt P51681) (assay: cell-based or functional assay).
B1 gave an IC50, cell-cell fusion assay (gp160-expressing HeLa cells with CEM.NKR-CCR5-Luc cells, luciferase) of 0.108 µg/mL.
B2 was tested, and the IC50, cell-cell fusion assay (gp160-expressing HeLa cells with CEM.NKR-CCR5-Luc cells, luciferase) was 0.399 µg/mL.
B3 showed an IC50, cell-cell fusion assay (gp160-expressing HeLa cells with CEM.NKR-CCR5-Luc cells, luciferase) of 0.132 µg/mL.
Work on B4 yielded an IC50, cell-cell fusion assay (gp160-expressing HeLa cells with CEM.NKR-CCR5-Luc cells, luciferase) of 0.076 µg/mL.
B5 was tested, and the IC50, cell-cell fusion assay (gp160-expressing HeLa cells with CEM.NKR-CCR5-Luc cells, luciferase) was 0.046 µg/mL.
Work on B6 yielded an IC50, cell-cell fusion assay (gp160-expressing HeLa cells with CEM.NKR-CCR5-Luc cells, luciferase) of 0.152 µg/mL.

— patent US20090110686A1
